Earlier results in article PMC6994236.

Columns and labels:
[1] = target: PSD-95 PDZ1-3 (Rattus norvegicus) (UniProt P31016); assay: surface plasmon resonance
[2] = target: PSD-95 PDZ3 (Rattus norvegicus) (UniProt P31016); assay: surface plasmon resonance
Sequence of PSD-95 PDZ3 (Rattus norvegicus) (P31016 310-396): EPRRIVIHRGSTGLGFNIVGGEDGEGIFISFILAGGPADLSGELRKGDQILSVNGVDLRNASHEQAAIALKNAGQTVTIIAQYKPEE

Sequence of PSD-95 PDZ1-3 (Rattus norvegicus) (P31016 61-393): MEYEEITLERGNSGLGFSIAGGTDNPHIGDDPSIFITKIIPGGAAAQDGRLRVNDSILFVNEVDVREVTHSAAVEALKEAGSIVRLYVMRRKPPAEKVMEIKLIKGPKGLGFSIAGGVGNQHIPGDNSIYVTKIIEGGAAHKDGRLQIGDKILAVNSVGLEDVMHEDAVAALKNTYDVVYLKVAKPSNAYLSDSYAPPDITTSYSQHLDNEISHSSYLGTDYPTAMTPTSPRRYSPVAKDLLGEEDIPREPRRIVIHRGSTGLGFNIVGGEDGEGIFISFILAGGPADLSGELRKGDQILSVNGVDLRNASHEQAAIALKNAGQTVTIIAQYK

**Q.** Which results are given for “synGAP lacking first 100 residues (from UniProt Q9QUH6)”?
**A.** Kd [1]: 5 nM; Kd [2]: 650 nM
